Data reported in PMC10509265.

Target: IP3R-type 2 (UniProt Q9Z329)
Assay: anti-IP3R2 co-IP from heart lysate
Conditions: reference: wild type heart after TAC; sites S14

binding against the reference: stronger
Substance: Bcl-xL (from UniProt Q64373) S14A knock-in heart after TAC
